This experiment concerns the target His-SUMO-tagged SH3 domain of c-Src (UniProt P12931). Kind of experiment: pull-down; His-SUMO-c-Src-SH3 as bait on Ni2+ beads, cleaved ChoKα constructs as probes; equimolar (1:1, 25 µM); 200 mM KCl, 30 mM imidazole pH 8.5, 25 mM Tris pH 8.5, 10 mM MgCl2; three washes; SDS-PAGE, Coomassie; band intensities by ImageJ.

Choline kinase alpha Δ49 P(61,62)A, sequence (P35790 other isoform, or with tags, fused parts or gaps mutant): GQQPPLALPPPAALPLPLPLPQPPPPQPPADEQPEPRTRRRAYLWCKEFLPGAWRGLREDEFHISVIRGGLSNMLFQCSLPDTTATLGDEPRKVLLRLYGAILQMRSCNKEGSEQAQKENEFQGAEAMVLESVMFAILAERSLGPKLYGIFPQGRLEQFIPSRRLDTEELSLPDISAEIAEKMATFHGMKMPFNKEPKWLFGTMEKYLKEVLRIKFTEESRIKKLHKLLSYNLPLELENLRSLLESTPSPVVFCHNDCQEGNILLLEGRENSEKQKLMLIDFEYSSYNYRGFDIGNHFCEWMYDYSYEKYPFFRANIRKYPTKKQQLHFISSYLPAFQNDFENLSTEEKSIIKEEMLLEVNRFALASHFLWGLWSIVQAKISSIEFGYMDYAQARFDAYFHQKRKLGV
Choline kinase alpha Δ49, wild type, sequence (P35790 50-457, stated change not applied): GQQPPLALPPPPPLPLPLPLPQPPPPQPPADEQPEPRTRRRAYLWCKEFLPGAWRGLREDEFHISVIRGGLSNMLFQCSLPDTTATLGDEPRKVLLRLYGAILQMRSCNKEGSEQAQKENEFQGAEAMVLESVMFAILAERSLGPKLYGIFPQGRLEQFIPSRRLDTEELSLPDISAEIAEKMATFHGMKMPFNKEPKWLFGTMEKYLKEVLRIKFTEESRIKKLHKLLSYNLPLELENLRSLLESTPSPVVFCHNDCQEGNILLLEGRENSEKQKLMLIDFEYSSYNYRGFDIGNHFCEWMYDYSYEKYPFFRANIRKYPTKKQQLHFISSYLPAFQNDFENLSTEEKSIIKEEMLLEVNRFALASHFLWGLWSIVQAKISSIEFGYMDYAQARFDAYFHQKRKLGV
Choline kinase alpha Δ49 P(59,60)A, sequence (P35790 other isoform, or with tags, fused parts or gaps mutant): as the sequence (P35790 50-457, stated change not applied) above, with P10A, P11A counted along it
Choline kinase alpha Δ49 P(72,73)A, sequence (P35790 other isoform, or with tags, fused parts or gaps mutant): as the sequence (P35790 50-457, stated change not applied) above, with P23A, P24A counted along it

As to “Choline kinase alpha Δ49 P(61,62)A (from UniProt P35790 50-457) (domain or fragment)”, the ratio of the ChoKα band intensity to the His-SUMO-cSrcSH3 band intensity stood at 0.2.
For the substance “Choline kinase alpha Δ49 P(72,73)A (from UniProt P35790 50-457) (domain or fragment)”, the ratio of the ChoKα band intensity to the His-SUMO-cSrcSH3 band intensity was determined as 0.88.
For “Choline kinase alpha Δ49, wild type (from UniProt P35790 50-457) (domain or fragment)”, the ratio of the ChoKα band intensity to the His-SUMO-cSrcSH3 band intensity was 0.69.
With “Choline kinase alpha Δ49 P(59,60)A (from UniProt P35790 50-457) (domain or fragment)”, the ratio of the ChoKα band intensity to the His-SUMO-cSrcSH3 band intensity was 0.7.

(Values after article PMC6864063.)
